Source: patent US20140328838A1 (NVIP, published 2014)

Assays:
human TNF = target: T1, human TNF (human, UniProt P01375 77-233); assay: ELISA (FIG. 16 panel B)
T1 construct: also called huTNF

canine TNF alpha [1] = target: T2, canine TNF alpha (canine, UniProt P51742 77-233); assay: ELISA, canine TNF alpha coated; antibody 5 to 0.05 µg/ml (FIG. 14B)
T2 construct: Coated at 5 ug/ml in the ELISA; Used at 1 ng/mL in the reporter assay

canine TNF alpha [2] = target: T2, canine TNF alpha; assay: ELISA (FIG. 16 panel C)

T1 sequence (P01375 77-233 limits assumed): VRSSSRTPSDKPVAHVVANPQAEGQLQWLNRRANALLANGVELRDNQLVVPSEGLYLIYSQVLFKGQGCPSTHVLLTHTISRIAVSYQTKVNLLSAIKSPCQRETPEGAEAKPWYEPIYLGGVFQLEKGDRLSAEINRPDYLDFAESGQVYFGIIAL
T2 sequence (P51742 77-233 limits assumed): as the sequence (P01375 77-233 limits assumed) above, with R2K, Q21E, N30S, R44T, V49I, E53D, I83F, A109T, R138L, D140N counted along it

Binder | binding result (human TNF) | binding result (canine TNF alpha [1]) | binding result (canine TNF alpha [2])
caninised anti-TNF monoclonal antibody based on D2E7 (ca-HCB+ca-kLC) (antibody, V domains shown, also called caninised (Ca) D2E7 based MAb; canine PETised D2E7) VH: not shown VL: DIVMTQSPASLSLSQEEKVTITCRASQGIRNYLAWYQQKPGQAPKLLIYAASTLQSGVPSRFSGSGSGTDFTLTISSLEPEDVAVYYCQRYNRAPYTFGQGTKVEIKR | binds | binds | –
caninised anti-huTNF MAb 148 (antibody, V domains shown, Expressed in CHO cells and purified by Protein A chromatography) VH: EVQLVESGGGVVQPGGSLRLSCAASGFIFSSYAMRWVRQAPGKGLEWVAFMSYDGSNKKYADSVKGRFTISRDNSKNTLYLQMNSLRAEDTAVYYCARDRGIAAGGNYYYYGMDVWGQGTSVTVSS VL: EIVMTQSPASLSLSPGEKATISCRASQSVYSYLAWYQQKPGQAPRLLIYDASNRATGVPSRFSGSGSGTDFTLTISSLEPEDVAVYYCQQPSNWPPFTFGPGTKVDIKR | binds | – | no binding
